Reference: patent publication US20080085863A1 (WISCONSIN ALUMNI RESEARCH FOUNDATION, published 2008)

T1: Flag-tagged recombinant bone morphogenetic protein-1 (BMP-1) (UniProt P13497-2 121-730, limits assumed)
T1 sequence (looked up): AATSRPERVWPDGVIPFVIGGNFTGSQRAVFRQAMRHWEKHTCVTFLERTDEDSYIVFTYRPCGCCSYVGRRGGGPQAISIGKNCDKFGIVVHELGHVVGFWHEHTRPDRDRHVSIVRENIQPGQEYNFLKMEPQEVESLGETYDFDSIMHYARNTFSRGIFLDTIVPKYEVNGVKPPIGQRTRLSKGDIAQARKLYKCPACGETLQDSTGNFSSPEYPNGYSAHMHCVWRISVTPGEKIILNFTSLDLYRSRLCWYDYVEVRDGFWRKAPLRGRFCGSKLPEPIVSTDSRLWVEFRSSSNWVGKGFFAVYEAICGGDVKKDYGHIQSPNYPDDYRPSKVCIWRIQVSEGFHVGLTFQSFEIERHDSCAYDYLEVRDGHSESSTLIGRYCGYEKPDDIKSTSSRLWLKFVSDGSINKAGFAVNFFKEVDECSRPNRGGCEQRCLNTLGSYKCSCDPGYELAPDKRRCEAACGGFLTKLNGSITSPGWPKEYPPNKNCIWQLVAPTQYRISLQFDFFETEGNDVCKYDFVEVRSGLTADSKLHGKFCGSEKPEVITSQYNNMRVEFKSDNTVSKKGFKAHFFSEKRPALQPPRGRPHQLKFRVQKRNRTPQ

B1: human α2-macroglobulin from plasma (Sigma-Aldrich) (other)
chain: SVSGKPQYMVLVPSLLHTETTEKGCVLLSYLNETVTVSASLESVRGNRSLFTDLEAENDVLHCVAFAVPKSSSNEEVMFLTVQVKGPTQEFKKRTTVMVKNEDSLVFVQTDKSIYKPGQTVKFRVVSMDENFHPLNELIPLVYIQDPKGNRIAQWQSFQLEGGLKQFSFPLSSEPFQGSYKVVVQKKSGGRTEHPFTVEEFVLPKFEVQVTVPKIITILEEEMNVSVCGLYTYGKPVPGHVTVSICRKYSDASDCHGEDSQAFCEKFSGQLNSHGCFYQQVKTKVFQLKRKEYEMKLHTEAQIQEEGTVVELTGRQSSEITRTITKLSFVKVDSHFRQGIPFFGQVRLVDGKGVPIPNKVIFIRGNEANYYSNATTDEHGLVQFSINTTNVMGTSLTVRVNYKDRSPCYGYQWVSEEHEEAHHTAYLVFSPSKSFVHLEPMSHELPCGHTQTVQAHYILNGGTLLGLKKLSFYYLIMAKGGIVRTGTHGLLVKQEDMKGHFSISIPVKSDIAPVARLLIYAVLPTGDVIGDSAKYDVENCLANKVDLSFSPSQSLPASHAHLRVTAAPQSVCALRAVDQSVLLMKPDAELSASSVYNLLPEKDLTGFPGPLNDQDDEDCINRHNVYINGITYTPVSSTNEKDMYSFLEDMGLKAFTNSKIRKPKMCPQLQQYEMHGPEGLRVGFYESDVMGRGHARLVHVEEPHTETVRKYFPETWIWDLVVVNSAGVAEVGVTVPDTITEWKAGAFCLSEDAGLGISSTASLRAFQPFFVELTMPYSVIRGEAFTLKATVLNYLPKCIRVSVQLEASPAFLAVPVEKEQAPHCICANGRQTVSWAVTPKSLGNVNFTVSAEALESQELCGTEVPSVPEHGRKDTVIKPLLVEPEGLEKETTFNSLLCPSGGEVSEELSLKLPPNVVEESARASVSVLGDILGSAMQNTQNLLQMPYGCGEQNMVLFAPNIYVLDYLNETQQLTPEIKSKAIGYLNTGYQRQLNYKHYDGSYSTFGERYGRNQGNTWLTAFVLKTFAQARAYIFIDEAHITQALIWLSQRQKDNGCFRSSGSLLNNAIKGGVEDEVTLSAYITIALLEIPLTVTHPVVRNALFCLESAWKTAQEGDHGSHVYTKALLAYAFALAGNQDKRKEVLKSLNEEAVKKDNSVHWERPQKPKAPVGHFYEPQAPSAEVEMTSYVLLAYLTAQPAPTSEDLTSATNIVKWITKQQNAQGGFSSTQDTVVALHALSKYGAATFTRTGKAAQVTIQSSGTFSSKFQVDNNNRLLLQQVSLPELPGEYSMKVTGEGCVYLQTSLKYNILPEKEEFPFALGVQTLPQTCDEPKAHTSFQISLSVSYTGSRSASNMAIVDVKMVSGFIPLKPTVKMLERSNHVSRTEVSSNHVLIYLDKVSNQTLSLFFTVLQDVPVRDLKPAIVKVYDYYETDEFAIAEYNAPCSKDLGNA
notes: Bought plasma protein; also called plasma α2M; serum α2M
B2: recombinant wild type α2-macroglobulin (FLAG-tagged) (other, not shown: small tags and cut ends)
chain: B1 chain
notes: Expressed in 293 T-REx cells with the native signal peptide replaced by the BM40 signal peptide; also called rα2M; recombinant α2M

Legend:
[1] = biological target: T1, Flag-tagged recombinant bone …; test: cell-based or functional assay
[2] = biological target: T1, Flag-tagged recombinant bone …; test: time course of covalent complex formation of 40 nM 35S-BMP-1 with increasing α2M, SDS-PAGE densitometry (method of Enghild et al.)
Method: 40 nM ³⁵S-labeled BMP-1 was incubated with 20, 40, 80, 160, and 240 nM plasma α₂M, or recombinant wild type α₂M or with 5, 10, 20, 40, and 80 nM b-α₂M at 37° C. in 50 mM Tris-HCl, pH 7.5, 100 mM NaCl and 10 mM CaCl₂. Reactions were stopped at 10, 30, 60, 90 and 120 minutes (plasma α₂M and recombinant wild type α₂M), or at 2, 5, 10, 20 and 30 minutes (b-α₂M) by adding. SDS-PAGE sample buffer and boiling 5 minutes at 95° C. Protein samples were separated on 7.5% acrylamide SDS-PAGE gels, which were then treated with EN³HANCE (DuPont) and exposed to film. Percentages of BMP-1 incorporated into high molecular weight complexes were determined by densitometry and kinetic parameters were determined essentially via the method of Enghild J, et al, “Interaction of human rheumatoid synovial collagenase (matrix metalloproteinase 1) and stromelysin (matrix metalloproteinase 3) with human alpha 2-macroglobulin and chicken ovostatin. Binding kinetics and identification of matrix metalloproteinase cleavage sites,” J. Biol. Chem. 264:8779-8785 (1989).
To obtain a quantitative comparison of the rates of interaction of BMP-1 with the various wild type and mutant forms of α₂M, we employed the methodology of Enghild et al., supra, which involves quantification of covalent proteinase-α₂M complex formation, subsequent to incubation of radiolabeled proteinase with α₂M.

Binder | inhibition of BMP-1 pCP activity (cleavage of 3H-radiolabeled type I procollagen), IC50 [1] [nM] | Ki [2] [nM] | pCP inhibitory activity, IC50 [1] [nM]
B1 | 4.8 | 25.2 | 
B2 |  | 39.5 | 133
